This note sets out measurements from patent US20150031612A1 (YALE UNIVERSITY, published 2015).

Bridge positions count the residues as written; N and C are the ends. Square brackets hold non-standard residues; d marks the D form. Ends that are not written are not given here. S5 = C=CCCC[C@](C)(N)C(=O)O

In this assay the target is T1, native, full length, EGFR (wtEGFR) (UniProt P00533 25-1210, limits assumed).
T1 construct: whole, on cells; The pull-down used cell lysates, not intact cells; the residue numbers used (L858R, T790M) fit human EGFR; also called wild type EGFR; Epidermal Growth Factor Receptor
Nature of the assay: streptavidin-bead pull-down from lysates of wtEGFR-transfected CHO-K1 cells, anti-EGFR immunoblot. On the technique in general: A western blot detects proteins with antibodies after separation by electrophoresis.

B1: ^BT1^S (biotinylated analog of T1^S) (peptide)
peptide: VRKRT[S5]RRL[S5]QERELVE
modifications: staple 6-10; also: biotinylated, site not given here
notes: Stapled form of T1, biotinylated for the pull-down
B1: the binding result is recorded as “no binding (tested: 25 µM)”. Under VRKRTLRRLLQERELVE (also: biotinylated, site not given here) [^BJM-WT (biotinylated analog of JM-WT)] stands “no binding (tested: 25 µM)”.
